From patent US20210107971A1 (UCB, published 2021)
No end group written: not given here.

T1: biotinylated peptide corresponding to residues 117 to 126 of human alpha synuclein (peptide PVDPDNEAYE) (human, also: biotinylated, site not given here)
T1 construct: Captured on streptavidin plates for ELISA
T1 peptide: PVDPDNEAYE


Key:
[1] = target: T2, monoclonal 6470 rabbit Fab; assay: competitive SPR (Biacore 3000): 1 µM peptide with 50 nM Fab; competitor immobilised human alpha synuclein fibrils
T2 construct: Fab heavy chain entry carries a C-terminal His tag
Protocol: (§1) Recombinant human alpha synuclein monomer and pre-formed alpha synuclein fibrils were immobilized on a CM5 chip using a Biacore 3000 instrument (GE Healthcare). Following activation of the carboxymethyl dextran surface by injection of 100 μl of a fresh 1:1 (v/v) mixture of 50 mM N-hydroxysuccimide and 200 mM 1-ethyl-3-(3-dimethylaminopropyl)-carbodiimide at a flow rate of 10 μl/min HBS-EP (GE Healthcare) as running buffer, coupling was achieved by injecting 100 μl of monomer and fibrils, at 5 μM in 10 mM acetate pH 5.0, over separate flow cells. A reference flow cell was activated in the same manner and then all flow cell surfaces were deactivated with a 50 μl pulse of 1 M ethanolamine HCl pH 8.5.
(§2) Peptide solutions were prepared in running buffer at 100 μM and a peptide blank control prepared as a 1 in 100 dilution of DMSO in running buffer. […] Sensograms were recorded for each sample by injecting 30 μl of the mixture at 10 μl/min and recording a report point 5 seconds before the end of the injection. […] Control cycles were alternated with peptide cycles.

[2] = target: T2, monoclonal 6470 rabbit Fab; assay: competitive SPR (Biacore 3000): 1 µM peptide with 50 nM Fab; competitor immobilised human alpha synuclein monomer
Protocol: as §1, §2

[3] = target: T3, purified recombinant human alpha synuclein fibrils (human, UniProt P37840 1-140); assay: SPR, Biacore T200, as in Example 3; full-length IgG4P injected
Protocol: (§3) Interaction kinetics were determined by using surface plasmon resonance technology on a Biacore T200 instrument. Three different ligands including recombinant full-length human alpha synuclein monomer, purified recombinant human alpha synuclein fibrils, and purified recombinant mouse alpha synuclein fibrils, prepared as described herein, were each immobilized on three different flow cells of a CM5 chip surface using amine-coupling chemistry. The three ligands were prepared in 10 mM NaAc, pH 3.5, and immobilized onto separate flow cell surfaces to reach an immobilization level of about 30 response units (RU) for alpha synuclein monomer, about 40 RU for human alpha synuclein fibrils, and about 300 RU for mouse alpha synuclein fibrils respectively, at a flow rate of 10 μI/min. The buffer HBS-EP+(GE healthcare Bio-Sciences AB) was used as running buffer for both ligand immobilization and kinetics assay. […] The surface was regenerated by one injection of 50 mM HCl for 90 s at 10 μI/min, and another injection of 50 mM HCl for 60 s at 10 μI/min. The data were analyzed using the Biacore T200 evaluation software (version 3.0) using the bivalent analyte model with assumed no bulk contribution (RI=0) and global Rmax for IgG format, and 1:1 model with flexible bulk contribution (local RI) and global Rmax.

[4] = target: T4, recombinant full-length human alpha synuclein monomer (human, UniProt P37840 1-140); assay: as above
Protocol: as §3

[5] = target: T4, recombinant full-length human alpha …; assay: SPR, Biacore T200, as in Example 3; full-length IgG4P injected; human monomer
Protocol: as §3

[6] = target: T3, purified recombinant human alpha …; assay: affinity for human alpha synuclein fibrils, IgG4P; method not given; Table 6 humanization screen, separate from Table 7B
[7] = target: T3, purified recombinant human alpha …; assay: cell-based or functional assay
[8] = target: T3, purified recombinant human alpha …; assay: SPR, Biacore T200, as in Example 3; full-length IgG4P injected; human fibril
[9] = target: purified recombinant human alpha synuclein fibrils (human, UniProt P37840 1-140); assay: affinity for human alpha synuclein fibrils, IgG4P; method not given
[10] = target: T3, purified recombinant human alpha …; assay: cell-based or functional assay; remark: listed apart in the source
[11] = target: T3, purified recombinant human alpha …; assay: kinetics table of Example 9 (method not named there; same values as Table 7B, SPR)
[12] = target: T4, recombinant full-length human alpha …; assay: as above
[13] = target: T3, purified recombinant human alpha …; assay: affinity for human alpha synuclein fibrils, IgG4P; method not given; remark: listed apart in the source
[14] = target: T1, biotinylated peptide corresponding to …; assay: streptavidin-capture ELISA on biotinylated peptide PVDPDNEAYE, HRP anti-rabbit IgG Fc, TMB, OD 630 nm
Protocol: Purified antibodies were then subject to further screening by ELISA. […] Plates were blocked with 1% w/v PEG/PBS and then incubated with several dilutions of purified transient supernatant. Secondary HRP-conjugated goat anti-rabbit IgG Fc antibody (Stratech Scientific Ltd/Jackson ImmunoResearch) was added to plates, followed by visualization of binding with TMB substrate (3,3′,5,5′-Tetramethylbenzidine, from EMD Millipore; 10 μl/well).

[15] = target: T5, human beta synuclein (rPeptide) (human, UniProt Q16143 1-134); assay: Western blot, 1 microgram synuclein
T5 construct: also called rPeptide beta synuclein
T5 sequence (Q16143 whole entry): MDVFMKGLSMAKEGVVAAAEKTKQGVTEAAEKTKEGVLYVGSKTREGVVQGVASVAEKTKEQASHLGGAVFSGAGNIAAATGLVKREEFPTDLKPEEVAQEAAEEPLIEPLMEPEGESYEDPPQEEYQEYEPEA
Protocol: The binding of antibodies raised against human alpha synuclein to human beta synuclein were tested by Western blot using rPeptide beta synuclein. […] The membrane was blocked in PBS with 3% BSA and 0.1% Tween20. […] The blot was washed extensively in PBS with 0.1% Tween20, PBS and water. Chemi-luminescence was measured after addition of ECL Western blot substrate (Pierce).

koff [3]	kon [3]	koff [4]	kon [4]	IC50, inhibition of alpha synuclein aggregation induced by fibrils in HEK293F cells expressing alpha synuclein (% pSer129+ cells) [7]	Kd [3]	Kd [4]	Binder	also measured
							Ac-YEMPSEEGYQ-NH2 (Synthetic peptide of human alpha synuclein) [AS125-134]	% inhibition [1]: 52%; % inhibition [2]: 34%
0.000142 s⁻¹	855000 M⁻¹ s⁻¹	0.0242 s⁻¹	1.2e+06 M⁻¹ s⁻¹	< 5 nM			6470gL3gH23 IgG4P (antibody, V domains shown, Full-length humanized human IgG4P; also called VR6470 gL3) VH: EVQLLESGGGLVQPGGSLRLSCAVSGIDLSSHDMYWVRQAPGKGLEYIGAIYASGSTYYASWAKGRFTISRDNSKNTVYLQMNSLRAEDTAVYYCARIHYGNSGGLWGQGTLVTVSS VL: DIQMTQSPSSLSASVGDRVTITCQASQSVYKNNYLAWFQQKPGKAPKQLIYGASTLASGVPSRFSGSGSGTQFTLTISSLQPEDFATYYCAGYKGGRNDGFAFGGGTKVEIKR	Kd [5]: 20.1 nM; Kd [6]: 0.148 nM; Kd [8]: 0.166 nM
7.08e-05 s⁻¹	1.04e+06 M⁻¹ s⁻¹	0.00445 s⁻¹	966000 M⁻¹ s⁻¹	< 5 nM	0.068 nM	4.62 nM	VR6470 gL3; gH23-S56N-N102H (antibody, human IgG4 S228P, kappa, V domains shown, Full-length humanized human IgG4P) VH: EVQLLESGGGLVQPGGSLRLSCAVSGIDLSSHDMYWVRQAPGKGLEYIGAIYASGNTYYASWAKGRFTISRDNSKNTVYLQMNSLRAEDTAVYYCARIHYGHSGGLWGQGTLVTVSS VL: DIQMTQSPSSLSASVGDRVTITCQASQSVYKNNYLAWFQQKPGKAPKQLIYGASTLASGVPSRFSGSGSGTQFTLTISSLQPEDFATYYCAGYKGGRNDGFAFGGGTKVEIKR	
							6470gL3gH25 (antibody, V domains shown) VH: EVQLLESGGGLVQPGGSLRLSCAVSGIDLSSHDMYWVRQAPGKGLEWIGAIYASGSTYYASWAKGRFTISKDSSKNTVYLQMNSLRAEDTAVYYCARIHYGNSGGLWGQGTLVTVSS VL: DIQMTQSPSSLSASVGDRVTITCQASQSVYKNNYLAWFQQKPGKAPKQLIYGASTLASGVPSRFSGSGSGTQFTLTISSLQPEDFATYYCAGYKGGRNDGFAFGGGTKVEIKR	Kd [9]: 76 nM
7.44e-05 s⁻¹	1.25e+06 M⁻¹ s⁻¹	0.00488 s⁻¹	1.19e+06 M⁻¹ s⁻¹	< 5 nM	0.059 nM	4.1 nM	VR6470 gL3; gH36-S56N-N102H (antibody, human IgG4 S228P, kappa, V domains shown, Full-length humanized human IgG4P) VH: EVQLLESGGGLVQPGGSLRLSCAVSGIDLSSHDMYWVRQAPGKGLEYIGAIYASGNTYYASWAKGRFTISRDSSKNTLYLQMNSLRAEDTAVYYCARIHYGHSGGLWGQGTLVTVSS VL: DIQMTQSPSSLSASVGDRVTITCQASQSVYKNNYLAWFQQKPGKAPKQLIYGASTLASGVPSRFSGSGSGTQFTLTISSLQPEDFATYYCAGYKGGRNDGFAFGGGTKVEIKR	
0.000126 s⁻¹	2.39e+06 M⁻¹ s⁻¹	0.00648 s⁻¹	4.97e+06 M⁻¹ s⁻¹	< 5 nM	0.053 nM	1.31 nM	VR6470 gL3-N33R; gH36-S56N-N102H (antibody, human IgG4 S228P, kappa, V domains shown, Full-length humanized human IgG4P) VH: EVQLLESGGGLVQPGGSLRLSCAVSGIDLSSHDMYWVRQAPGKGLEYIGAIYASGNTYYASWAKGRFTISRDSSKNTLYLQMNSLRAEDTAVYYCARIHYGHSGGLWGQGTLVTVSS VL: DIQMTQSPSSLSASVGDRVTITCQASQSVYKNRYLAWFQQKPGKAPKQLIYGASTLASGVPSRFSGSGSGTQFTLTISSLQPEDFATYYCAGYKGGRNDGFAFGGGTKVEIKR	
0.000116 s⁻¹	2.07e+06 M⁻¹ s⁻¹	0.00594 s⁻¹	3.48e+06 M⁻¹ s⁻¹	< 5 nM	0.056 nM	1.71 nM	VR6470 gL3-N33R; gH23-S56N-N102H (antibody, human IgG4 S228P, kappa, V domains shown, Full-length humanized human IgG4P) VH: EVQLLESGGGLVQPGGSLRLSCAVSGIDLSSHDMYWVRQAPGKGLEYIGAIYASGNTYYASWAKGRFTISRDNSKNTVYLQMNSLRAEDTAVYYCARIHYGHSGGLWGQGTLVTVSS VL: DIQMTQSPSSLSASVGDRVTITCQASQSVYKNRYLAWFQQKPGKAPKQLIYGASTLASGVPSRFSGSGSGTQFTLTISSLQPEDFATYYCAGYKGGRNDGFAFGGGTKVEIKR	
0.000317 s⁻¹	1.07e+06 M⁻¹ s⁻¹	0.0174 s⁻¹	1.15e+06 M⁻¹ s⁻¹	< 5 nM	0.298 nM	15.1 nM	6470gL3gH36 IgG4P (antibody, V domains shown, Full-length humanized human IgG4P; also called VR6470 gL3; VR6470) VH: EVQLLESGGGLVQPGGSLRLSCAVSGIDLSSHDMYWVRQAPGKGLEYIGAIYASGSTYYASWAKGRFTISRDSSKNTLYLQMNSLRAEDTAVYYCARIHYGNSGGLWGQGTLVTVSS VL: DIQMTQSPSSLSASVGDRVTITCQASQSVYKNNYLAWFQQKPGKAPKQLIYGASTLASGVPSRFSGSGSGTQFTLTISSLQPEDFATYYCAGYKGGRNDGFAFGGGTKVEIKR	IC50, inhibition of alpha synuclein aggregation induced by fibrils on mouse primary neurons (pSer129 alpha synuclein signal) [7]: < 4 nM; IC50 (nM), HEK cell-based aggregation assay [10]: < 5 nM; Kd [11]: 0.298 nM; koff [11]: 0.000317 s⁻¹; kon [11]: 1.07e+06 M⁻¹ s⁻¹; Kd [12]: 15.1 nM; koff [12]: 0.0174 s⁻¹; kon [12]: 1.15e+06 M⁻¹ s⁻¹; Kd [13]: 0.166 nM
							Ac-DNEAYEMPSE-NH2 (Synthetic peptide of human alpha synuclein) [AS121-130]	% inhibition [1]: 27%; % inhibition [2]: 20%
							Ac-EAYEMPSEEG-NH2 (Synthetic peptide of human alpha synuclein) [AS123-132]	% inhibition [1]: 54%; % inhibition [2]: 37%
							monoclonal 6470 rabbit IgG1 (antibody, V domains shown, Recombinant rabbit IgG1/kappa expressed in Expi293 cells) VH: QSVEESGGRLVTPGTPLTLTCTVSGIDLSSHDMYWVRQAPGKGLEYIGAIYASGSTYYASWAKGRFTISKTSTTVDLKMTSLTTEDTATYFCARIHYGNSGGLWGQGTLVTVSS VL: AIVMTQTPSSKSVAVGDTVTINCQASQSVYKNNYLAWFQQKPGQPPKQLIYGASTLASGVPSRFKGSGSGTQFTLTISDVVCDDAATYYCAGYKGGRNDGFAFGGGTEVVVKR	binding result [14]: no binding; binding result [15]: no binding
